Consider one molecule from US20210284706A1 (published 2021).

The test deals with OMCP. The test can be described thus: method not stated.

B1: human NKG2D (Example 21) (receptor)
chain: NSLFNQEVQIPLTESYCGPCPKNWICYKNNCYQFFDESKNWYESQASCMSQNASLLKVYSKEDQDLLKLVKSYHWMGLVHIPTNGSWQWEDGSILSPNLLTIIEMQKGDCALYASSFKGYIENCSTPNTYICMQRTV
The molecule B1 yielded a Kd of 100 pM. This lies in the sub-nanomolar range.

By Kd is commonly meant the concentration at which binding is half-saturated. A lower Kd goes with a tighter complex.
